Among the data in the supplement of paper PMC12042874 are amyloid nucleation score values, retold here.

± gives the uncertainty stated by the source.

This data set can be described thus: amyloid nucleation score (Sup35N fusion, yeast selection) (log enrichment); library NNK2; higher = more nucleation; inactive = no reads after selection. The method, boiled down:
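The nucleation score, computed with DiMSum, is the log enrichment of output over input reads, centred on the mode score of non-aggregating sequences. Sequences with under 100 input reads were dropped. Reads were generated by Illumina sequencing of plasmid inserts from psi-negative yeast with Sup35N fused to peptides of 20 random codons, induced with 100 μM copper sulfate for 24 hours and grown 7 days at 30°C on medium lacking adenine and uracil.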
MSSYDF: the amyloid nucleation score result is “inactive”.
Under MSTMINSPPSSG stands “inactive”; under MSVTWYLGNWVTVL, -1.09 ± 0.79; under MSVVVLWHGLCLQLYMCDA, -0.23 ± 0.65.
Substance MSWVVIQFTINIFRHKTF registered an amyloid nucleation score of 3.47 ± 0.11.
With MTIHVSTELAALSSGL, the amyloid nucleation score is 1.11 ± 0.17.
As for MTLVRFSRIGALKLCLQKES, the figure is -0.337 ± 0.39; as for MTYRSLPEYTDLLWVTYVER, 0.369 ± 0.46; as for MVANG, 0.317 ± 0.62.
Under MVCLLSFPHPCGINLMVARN stands -0.147 ± 0.37; under MVCRFGILSYVMWRF, 0.83 ± 0.45.
With MVDTTRSTCISNSISWCAID, the amyloid nucleation score stood at 5.28 ± 0.062.
With MVGVVWSMTRFCGQHHTILG, the amyloid nucleation score is 0.531 ± 0.81.
With MVNGEVTLGAVCNTYQWACI, the amyloid nucleation score turned out to be 2.66 ± 0.15.
Under MVPVFTGWRICVGGNCLARR stands -0.162 ± 0.34.
As to MVVEFCYVRYRAN, the amyloid nucleation score was determined as 0.716 ± 0.6.
MVVNVGK: the amyloid nucleation score was -0.088 ± 0.17.
For the substance MWFWTLCIF, the amyloid nucleation score is 8.025 ± 0.027.
Under MWIHYKVFRCWTVRAEKVTG stands 4.29 ± 0.083; under MWIYNY, 2.78 ± 0.087.
As for MWLASSDNYHNMALVCFCVL, the entry is “inactive”.
The substance MWVDQMVFKRPGYCRSGMYL gave an amyloid nucleation score of 4.78 ± 0.049.
MYDFLVKGRGVCVNLGNSTW registered an amyloid nucleation score of -1.21 ± 0.48.
Under MYEFQPRLDHRLFRYICMNV stands -0.018 ± 1.1; under MYILMKDIRDFIFSSRPIIS, “inactive”; under MYRISPCVLRGY, 0.366 ± 0.34.
For the substance MYSYFSRSMTHTNNGLSSLA, the amyloid nucleation score was 4.38 ± 0.045.
On to MYTKVNF, for which the amyloid nucleation score was -0.93 ± 0.76.
Turning to MYTLYS, the amyloid nucleation score entry is “inactive”.
As for MYTVGWHSTQCFLEDFGRTL, the figure is 3.13 ± 0.075; as for NACILNSM, “inactive”.
The substance NADHDLSEILVNRRTGWFHF had an amyloid nucleation score of 5.836 ± 0.041.
NALSIQVGSCPRSLISSVGP had an amyloid nucleation score of 0.228 ± 1.
As for NASLYVSYGM, the figure is 1.5 ± 0.39; as for NASVHPMFL, -0.24 ± 0.48.
With NATCPRHCRDHQGSYYRHCL, the amyloid nucleation score is 0.499 ± 0.28.
Consider NAVFVFSRWWYISNVVPQK, for which the amyloid nucleation score is -1.48 ± 1.1.
For the substance NAYFMLEILRTKWTQDSTER, the amyloid nucleation score was -0.99 ± 0.78.
On to NCCEMNVLYLSIRLLFHVTA, for which the amyloid nucleation score was determined as 1.58 ± 0.097.
NCFNLEKGQMCPDWNGSSYT showed an amyloid nucleation score of -0.667 ± 0.39.
The substance NCKWCNT had an amyloid nucleation score of 0.996 ± 0.29.
Under NCTHPFDMTPNFFWSYGIVG stands -0.656 ± 1.1; under NCVTHFMFNLDWSLWFEVCF, -1.04 ± 1.1; under NCWNLICLKSSFRR, 9.054 ± 0.05.
Under NCYGVVYSLCNMEVLSMWHE stands 7.723 ± 0.036.
Under NDCSGKDVVILQQE stands 0.192 ± 1; under NDKCKLVLIGLDFNELVQPS, -0.708 ± 1.1.
For NDLYDSINEA, the amyloid nucleation score is -0.885 ± 0.38.
NDSCELLCESITYTAWFSGQ: the amyloid nucleation score came to 3.22 ± 0.12.
In turn, NDTRSLLML showed an amyloid nucleation score of 0.259 ± 0.24.
As for NDWSHRSIFMMVCFWGVHSH, the amyloid nucleation score entry is “inactive”.
As for NEDLIEKSLFCLAYSLFPTS, the figure is -0.266 ± 0.62; as for NEHGGLVNYGVCISGATYLA, 4.21 ± 0.097.
Under NELKY stands 0.02 ± 0.56; under NERQEIIPDSSPETHVSNIT, 1.12 ± 0.12.
Substance NERYP gave an amyloid nucleation score of -0.865 ± 0.33.
Under NESNYRVVRGKFKSEFRAEL stands 3.61 ± 0.13.
As for NEYYAFFRLSADSASS, the amyloid nucleation score was 0.571 ± 0.51.
For the substance NFAGLLY, the amyloid nucleation score result was “inactive”.
As for NFCPLPLVRCIECLRTMDGV, the entry is “inactive”.
Under NFEFFYRRNHT stands “inactive”; under NFFVFYIR, 7.06 ± 0.072.
Turning to NFLCVSDKGCDCVESKLG, the amyloid nucleation score is 8.145 ± 0.033.
With NFLMV, the amyloid nucleation score was found to be 0.75 ± 0.47.
Under NFNCAPFLVLYQQVGQAFSL stands 6.578 ± 0.06.
As for NFPAWCV, the amyloid nucleation score came out at 0.495 ± 0.19.
On to NFVIQ, for which the amyloid nucleation score was determined as 0.011 ± 0.56.
As for NFVKRV, the figure is -0.509 ± 0.48.
Under NGGPHRPDSLVWYLEHKMRQ stands “inactive”.
The substance NGSDRWQASHRTNWGMVGFG came in with an amyloid nucleation score of 0.597 ± 0.44.
As for NGSRI, the figure is 0.018 ± 0.31.
Under NGTCLYAYIMIRLISNEFSR stands -0.417 ± 0.42; under NGVKGLKIMDSRSGVT, 6.043 ± 0.046.
As for NHHTEDMVK, the amyloid nucleation score was 0.367 ± 0.32.
The substance NHLGLTDCTFQGLDSG returned an amyloid nucleation score of -1.09 ± 1.1.
On to NHMKFAGLGGCYSYCTFLVD, for which the amyloid nucleation score amounted to 6.587 ± 0.045.
On to NHRAIYF, for which the amyloid nucleation score was 0.205 ± 0.77.
Under NHTLVLLIRNSNVHVSTAQS stands 10.78 ± 0.07; under NHVARMFLKQRFFSNMS, “inactive”.
Under NHVNNLIHDFRPALEHLRDT stands -0.134 ± 0.45; under NIAWTVDRYRKGSARGV, 1.17 ± 0.23; under NICITHPH, 0.299 ± 0.64.
Under NIGRYIIQVGSNGEANWHRV stands “inactive”.
In turn, NILVLLVTGVTLGR came in with an amyloid nucleation score of 4.11 ± 0.059.
Under NINNFLSISIFNGYASHVNC stands “inactive”; under NINTSYHNSPCPQYTLASMW, -0.231 ± 1; under NINYGSSA, -0.746 ± 0.78.
Under NIPRRGIVGWTAL stands “inactive”.
Under NIRMVNLLAYVCPEVIREAC stands “inactive”.
Turning to NIRSHKGIVLVG, the amyloid nucleation score result is “inactive”.
Regarding NIVYESDVVFSCISKYWL, the amyloid nucleation score stood at 5.426 ± 0.04.
NIYGDNVGCYSTECYNTKLI had an amyloid nucleation score of -0.305 ± 0.74.
Consider NIYIWVSTMFLLKSEQSSSN, for which the amyloid nucleation score is 6.038 ± 0.058.
In turn, NKARWAPVRMEALLVAQRVG registered an amyloid nucleation score of 1.28 ± 0.38.
Under NKEKN stands 2.58 ± 0.13; under NKGVCDEVSVSSISVAIF, -0.093 ± 0.63.
In the case of NKMGVKVYTRIAQHSGHLFA, the amyloid nucleation score was 5.21 ± 0.094.
Substance NKNVSTGWYCVIESI had an amyloid nucleation score of 1.26 ± 0.6.
Under NLFQRCREGDMVRNSSVLDG stands -0.017 ± 1; under NLKLPNRSSWVLPVQYRPFD, 3.28 ± 0.053; under NLKMDLLRFLHMSLRYISTR, -0.36 ± 0.64.
In turn, NLMVVRRSDHSRPGNCHWQA came in with an amyloid nucleation score of 0.381 ± 0.3.
Under NLNFPMRSSILDCAGDNVRR stands 0.49 ± 0.8; under NLRNKIVGLTKGLVCRANVV, 2.34 ± 0.091.
NLRYVFRFII came in with an amyloid nucleation score of 2.9 ± 0.073.
Under NLSYSVVMTGISGAMTTCCF stands 3.64 ± 0.11; under NLTFACVVYANWVILTHGAR, 6.336 ± 0.061.
Substance NLVAMPDQVAGSTCRVCNNN yielded an amyloid nucleation score of 0.486 ± 0.51.
On to NLVCNSLFRDDKVSTELTEM, for which the amyloid nucleation score result is “inactive”.
As for NMCWFKPG, the figure is -0.329 ± 0.17; as for NMDYDIKEQFLSRVPSPRES, -0.95 ± 0.78; as for NMFIRKEYWSTLALEIFWWS, -0.441 ± 0.4.
As for NMFSLWVYKLAMFWIY, the figure is -0.701 ± 1.1; as for NMGIFALGAEQD, -0.039 ± 1.1; as for NMHNTCMYKRKLVMDSSVWL, “inactive”.
In turn, NMLWASMYH had an amyloid nucleation score of -0.546 ± 0.42.
On to NMTKRWMVCYHFFFKNYDLT, for which the amyloid nucleation score worked out at 0.207 ± 0.8.
Take NNFWSNGG: the amyloid nucleation score is -0.285 ± 0.48.
The substance NNLPTQIYYVLNSPSEVRLN showed an amyloid nucleation score of 0.579 ± 0.31.
For NNMKVDAVVYIATKPGHWDQ, the amyloid nucleation score was determined as 7.589 ± 0.034.
Regarding NNNCGRLGVYI, the amyloid nucleation score was -0.962 ± 1.
As for NNPWFCGGSLWLYGSQYSPS, the figure is 3.23 ± 0.078.
As for NNRVVFTGRFL, the figure is -1.45 ± 0.47; as for NNSYVFFFI, 7.013 ± 0.064.
Under NNVFELCERSKLPIKKFHDV stands -0.615 ± 1; under NNVGWVLHDGRFFSVSHYIA, 0.294 ± 1.1.
NNVRMYLSFRAIVY showed an amyloid nucleation score of -1.19 ± 0.76.
In the case of NNWVAAHSLS, the amyloid nucleation score entry is “inactive”.
As for NPFLFAYANYLLLMCIGRVY, the figure is -0.044 ± 0.61; as for NPGVDQTHFLGFLI, -1.85 ± 1.1.
Under NPLRWEWAGVWLRYTR stands 0.816 ± 0.58.
NPLYEARKRNRLYTFGATRF showed an amyloid nucleation score of 3.65 ± 0.084.
With NPWIAIKWHNTVFLRHIWQM, the amyloid nucleation score is -0.494 ± 0.22.
The substance NPYAHTGHCVIRGFFVA had an amyloid nucleation score of 0.275 ± 0.53.
Substance NQFLMVWSDIDVRKDVRFLH yielded an amyloid nucleation score of -0.977 ± 0.48.
The substance NQYMFFGSHRD gave an amyloid nucleation score of 0.424 ± 0.49.
For NRAFLMSYAPRRHFGAMSKA, the amyloid nucleation score came to 3.51 ± 0.073.
NRICYRLGCLRADNDNDLSG displayed an amyloid nucleation score of -0.234 ± 0.26.
As for NRLMVPSTNKFTCLPE, the figure is 0.056 ± 0.36.
NRNLSYHT yielded an amyloid nucleation score of 0.633 ± 0.8.
Under NRRFSSGSVSSLKFLRSVWA stands -0.428 ± 0.61.
